Measured values as given in patent publication US20190135928A1 (Bristol-Myers Squibb, published 2019).

How the values were obtained:
Assay in all cases: cell-based or functional assay
human TL1A (in-house) [1] = molecular target: T1, human TL1A (in-house) (human, UniProt O95150 57-251, limits assumed)
T1 sequence: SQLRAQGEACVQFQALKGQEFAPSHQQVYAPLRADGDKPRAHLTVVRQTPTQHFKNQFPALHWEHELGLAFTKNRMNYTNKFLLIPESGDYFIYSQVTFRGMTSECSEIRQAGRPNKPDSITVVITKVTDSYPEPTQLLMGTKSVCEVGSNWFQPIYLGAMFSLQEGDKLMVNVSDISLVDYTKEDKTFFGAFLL

human TL1A (in-house) [2] = molecular target: T1, human TL1A (in-house); remark: listed apart in the source
human TL1A (in-house) [3] = molecular target: T1, human TL1A (in-house); remark: listed apart in the source
human TL1A (in-house) [4] = molecular target: T1, human TL1A (in-house); remark: listed apart in the source

B1: TL1A antibody 10A4.F7.2E8 huIgG4 (antibody, V domains shown)
VH: QLQLQESGPGLVKPSETLSLTCTVSGGSISSRSYYWGWIRQPPGKGLEWIGSIYYNGRTYYNPSLKSRVTISVDTSKNQFSLKLSSVTAADTAVYYCAREDYGDYGAFDIWGQGTMVTVSS
VL: AIQLTQSPSSLSASVGDRVTITCRASQGISSALAWYQQKPGKAPKLLIYDASSLESGVPSRFSGSGSGTDFTLTISSLQPEDFATYYCQQFNSYPLTFGGGTKVEIKR
EC50, TL1A + IL-12 + IL-18 driven IFNg (Hu Tcells) (5.9 mg/ml), Donor B, ELN ref 99932-004774 (human TL1A (in-house) [1]): 0.243 nM
EC50, TL1A + IL-12 + IL-18 driven IFNg (Hu Tcells) (5.9 mg/ml), Donor B, ELN ref 99932-004955 (human TL1A (in-house) [1]): 0.182 nM
EC50, TL1A + IL-12 + IL-18 driven IFNg (Hu Tcells) (2.45 mg/ml), Donor A, ELN ref 97305-062 (human TL1A (in-house) [2]): 0.18 nM
EC50, TL1A + IL-12 + IL-18 driven IFNg (Hu Tcells) (2.45 mg/ml), Donor A, ELN ref 97305-064 (human TL1A (in-house) [2]): 0.235 nM
EC50, TL1A + IL-12 + IL-18 driven IFNg (Hu Tcells) (2.45 mg/ml), Donor A, ELN ref 97305-066 (human TL1A (in-house) [2]): 0.331 nM
EC50, TL1A + IL-12 + IL-18 driven IFNg (Hu Tcells) (2.45 mg/ml), Donor A, ELN ref 97305-077 (human TL1A (in-house) [2]): 0.241 nM
EC50, TL1A + IL-12 + IL-18 driven IFNg (Hu Tcells) (2.45 mg/ml), Donor A, ELN ref 97305-082 (human TL1A (in-house) [2]): 0.034 nM
EC50, TL1A + IL-12 + IL-18 driven IFNg (Hu Tcells) (2.45 mg/ml), Donor A, ELN ref 99932-003797 (human TL1A (in-house) [2]): 0.355 nM
EC50, TL1A + IL-12 + IL-18 driven IFNg (Hu Tcells) (2.45 mg/ml), Donor A, ELN ref 99932-004083 (human TL1A (in-house) [2]): 0.393 nM
EC50, TL1A + IL-12 + IL-18 driven IFNg (Hu Tcells) (2.45 mg/ml), Donor A, ELN ref 99932-004084 (human TL1A (in-house) [2]): 0.367 nM
EC50, TL1A + IL-12 + IL-18 driven IFNg (Hu Tcells) (2.45 mg/ml), Donor A, ELN ref 99932-004439 (human TL1A (in-house) [2]): 0.185 nM
EC50, TL1A + IL-12 + IL-18 driven IFNg (Hu Tcells) (2.45 mg/ml), Donor A, ELN ref 99932-004774 (human TL1A (in-house) [2]): 0.22 nM
EC50, TL1A + IL-12 + IL-18 driven IFNg (Hu Tcells) (2.45 mg/ml), Donor A, ELN ref 99932-004955 (human TL1A (in-house) [2]): 0.172 nM
EC50, TL1A + IL-12 + IL-18 driven IFNg (Hu Tcells) (2.45 mg/ml), Donor B, ELN ref 97305-062 (human TL1A (in-house) [2]): 0.259 nM
EC50, TL1A + IL-12 + IL-18 driven IFNg (Hu Tcells) (2.45 mg/ml), Donor B, ELN ref 97305-064 (human TL1A (in-house) [2]): 0.199 nM
EC50, TL1A + IL-12 + IL-18 driven IFNg (Hu Tcells) (2.45 mg/ml), Donor B, ELN ref 97305-066 (human TL1A (in-house) [2]): 0.347 nM
EC50, TL1A + IL-12 + IL-18 driven IFNg (Hu Tcells) (2.45 mg/ml), Donor B, ELN ref 97305-077 (human TL1A (in-house) [2]): 0.258 nM
EC50, TL1A + IL-12 + IL-18 driven IFNg (Hu Tcells) (2.45 mg/ml), Donor B, ELN ref 97305-082 (human TL1A (in-house) [2]): 0.039 nM
EC50, TL1A + IL-12 + IL-18 driven IFNg (Hu Tcells) (2.45 mg/ml), Donor B, ELN ref 99932-003797 (human TL1A (in-house) [2]): 0.312 nM
EC50, TL1A + IL-12 + IL-18 driven IFNg (Hu Tcells) (2.45 mg/ml), Donor B, ELN ref 99932-004083 (human TL1A (in-house) [2]): 0.311 nM
EC50, TL1A + IL-12 + IL-18 driven IFNg (Hu Tcells) (2.45 mg/ml), Donor B, ELN ref 99932-004084 (human TL1A (in-house) [2]): 0.303 nM
EC50, TL1A + IL-12 + IL-18 driven IFNg (Hu Tcells) (2.45 mg/ml), Donor B, ELN ref 99932-004439 (human TL1A (in-house) [2]): 0.194 nM
EC50, TL1A + IL-12 + IL-18 driven IFNg (Hu Tcells) (2.45 mg/ml), Donor B, ELN ref 99932-004774 (human TL1A (in-house) [2]): 0.319 nM
EC50, TL1A + IL-12 + IL-18 driven IFNg (Hu Tcells) (2.45 mg/ml), Donor B, ELN ref 99932-004955 (human TL1A (in-house) [2]): 0.211 nM
EC50, TL1A + IL-12 + IL-18 driven IFNg (Hu WB)(2.45 mg/ml), Donor A, ELN ref 97305-029 (human TL1A (in-house) [3]): 0.32 nM
EC50, TL1A + IL-12 + IL-18 driven IFNg (Hu WB)(2.45 mg/ml), Donor A, ELN ref 97305-033 (human TL1A (in-house) [3]): 0.284 nM
EC50, TL1A + IL-12 + IL-18 driven IFNg (Hu WB)(2.45 mg/ml), Donor B, ELN ref 97305-029 (human TL1A (in-house) [3]): 0.54 nM
EC50, TL1A + IL-12 + IL-18 driven IFNg (Hu WB)(2.45 mg/ml), Donor B, ELN ref 97305-033 (human TL1A (in-house) [3]): 0.108 nM
EC50, TL1A + IL-12 + IL-18 driven IFNg (Hu Tcells) (4.8 mg/ml), Donor A, ELN ref 97305-082 (human TL1A (in-house) [4]): 0.162 nM
EC50, TL1A + IL-12 + IL-18 driven IFNg (Hu Tcells) (4.8 mg/ml), Donor A, ELN ref 99932-003797 (human TL1A (in-house) [4]): 0.303 nM
EC50, TL1A + IL-12 + IL-18 driven IFNg (Hu Tcells) (4.8 mg/ml), Donor A, ELN ref 99932-004083 (human TL1A (in-house) [4]): 0.27 nM
EC50, TL1A + IL-12 + IL-18 driven IFNg (Hu Tcells) (4.8 mg/ml), Donor A, ELN ref 99932-004084 (human TL1A (in-house) [4]): 0.316 nM
EC50, TL1A + IL-12 + IL-18 driven IFNg (Hu Tcells) (4.8 mg/ml), Donor A, ELN ref 99932-004439 (human TL1A (in-house) [4]): 0.262 nM
EC50, TL1A + IL-12 + IL-18 driven IFNg (Hu Tcells) (4.8 mg/ml), Donor A, ELN ref 99932-004774 (human TL1A (in-house) [4]): 0.177 nM
EC50, TL1A + IL-12 + IL-18 driven IFNg (Hu Tcells) (4.8 mg/ml), Donor A, ELN ref 99932-004955 (human TL1A (in-house) [4]): 0.193 nM
EC50, TL1A + IL-12 + IL-18 driven IFNg (Hu Tcells) (4.8 mg/ml), Donor A, ELN ref 99932-005751 (human TL1A (in-house) [4]): 0.216 nM
EC50, TL1A + IL-12 + IL-18 driven IFNg (Hu Tcells) (4.8 mg/ml), Donor B, ELN ref 97305-082 (human TL1A (in-house) [4]): 0.143 nM
EC50, TL1A + IL-12 + IL-18 driven IFNg (Hu Tcells) (4.8 mg/ml), Donor B, ELN ref 99932-003797 (human TL1A (in-house) [4]): 0.361 nM
EC50, TL1A + IL-12 + IL-18 driven IFNg (Hu Tcells) (4.8 mg/ml), Donor B, ELN ref 99932-004084 (human TL1A (in-house) [4]): 0.345 nM
EC50, TL1A + IL-12 + IL-18 driven IFNg (Hu Tcells) (4.8 mg/ml), Donor B, ELN ref 99932-004439 (human TL1A (in-house) [4]): 0.157 nM
EC50, TL1A + IL-12 + IL-18 driven IFNg (Hu Tcells) (4.8 mg/ml), Donor B, ELN ref 99932-004774 (human TL1A (in-house) [4]): 0.267 nM
EC50, TL1A + IL-12 + IL-18 driven IFNg (Hu Tcells) (4.8 mg/ml), Donor B, ELN ref 99932-004955 (human TL1A (in-house) [4]): 0.287 nM
EC50, TL1A + IL-12 + IL-18 driven IFNg (Hu Tcells) (4.8 mg/ml), Donor B, ELN ref 99932-005751 (human TL1A (in-house) [4]): 0.138 nM
